Test results as given in patent US8951962B2, “Modified exendins and exendin agonists” (priority 1999, dated 2015).
No end group written: not given here. PEG = not defined here

Legend:
[1] = target: T1, GLP-1 receptor (RINm5f membranes) (Rattus norvegicus, UniProt P32301); experiment: Cyclase activation study (GLP-1 Cyclase), cAMP SPA immunoassay on RINm5f membranes; assay type: biochemical; settings: read-out: GLP-1 Cyclase EC50, 20 minutes at 37° C., supernatant cAMP
T1 construct: host or cells: RINm5f cells (membranes/homogenate)
T1 sequence (P32301 22-463): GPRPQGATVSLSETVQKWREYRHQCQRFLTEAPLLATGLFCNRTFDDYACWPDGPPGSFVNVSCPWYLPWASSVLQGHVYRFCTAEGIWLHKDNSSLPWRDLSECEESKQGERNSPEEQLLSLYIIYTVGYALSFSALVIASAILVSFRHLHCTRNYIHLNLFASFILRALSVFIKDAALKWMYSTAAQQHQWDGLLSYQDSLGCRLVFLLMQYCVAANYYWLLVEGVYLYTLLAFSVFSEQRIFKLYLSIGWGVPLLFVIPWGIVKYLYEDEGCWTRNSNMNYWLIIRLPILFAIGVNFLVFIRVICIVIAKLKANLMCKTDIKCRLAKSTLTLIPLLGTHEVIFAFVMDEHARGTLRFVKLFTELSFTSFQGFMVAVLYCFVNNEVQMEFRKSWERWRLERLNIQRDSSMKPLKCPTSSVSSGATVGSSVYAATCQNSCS
Procedure: All other peptides were prepared using synthesis methods such as those described herein. All chemicals were of the highest commercial grade. The cAMP SPA immunoassay was purchased from Amersham. The radioligands were purchased from New England Nuclear (Boston, Mass.). RINm5f cells (American Type Tissue Collection, Rockville, Md.) were grown in DME/F12 medium containing 10% fetal bovine serum and 2 mM L-glutamine. […] Cells were grown to confluence then harvested and homogenized using on a Polytron homogenizer. Cell homogenates were stored frozen at −70° C. until used.
Membranes and peptides was combined in […] of assay buffer in 96 well filter-bottom plates (Millipore Corp., Bedford, Mass.). After 20 minutes incubation at 37° C., the assay was terminated by transfer of supernatant by filtration into a fresh 96 well plate using a Millipore vacuum manifold. Supernatant cAMP contents were quantitated by SPA immunoassay. Peptide samples were run in the assay as triplicate points at 7 dilutions over a concentration range of 10^−6M to 10^−12M to generate response curves. The biological activity of a particular sample was expressed as an EC50 value calculated as described above.

NIH:Swiss mice = experiment: Food intake (appetite suppression) in normal mice; assay type: in vivo; settings: inhibition of food intake over 30 min, intraperitoneal injection, food deprived NIH:Swiss mice
Procedure: All mice (NIH:Swiss mice) were housed in a stable environment of 22 (±2)° C., 60 (±10) % humidity and a 12:12 light:dark cycle; with lights on at 0600. […] All experiments were conducted between the hours of 0700 and 0900.

[2] = HPLC analysis of plasma for circulating metabolites after large intravenous doses; assay type: in vivo; settings: plasma of animals after large intravenous doses

Substance “HGEGTFTSDLSRQMEEEAVRLFIEWLRNGK(PEG)PSSGAPPPS-NH2 [230] (not fully specified; PEG linker; C-terminal amide) [compound 230]” has an EC50 [1] of 157 nM.
With “HGEGTFTSDLSRQMEEAVRLFIEWLRNGGPSSGAPPPK(PEG)-NH2 (reading uncertain; also: printed as HGEGTFTSDLSRQMEEAVRLFIEWLRNGGPSSGAPPPK(PEG)-NH2) [compound 229]” the “Appetite Suppression ED50” value (NIH:Swiss mice) was 0.0145 mg/kg and the EC50 [1] was 60.4 nM.
With “HGEGTFTSDLSRQMEEEAVRLFIEWLRNGK(PEG)PSSGAPPPS-NH2 [224] (not fully specified; PEG linker; C-terminal amide) [compound 224]” the “Appetite Suppression ED50” value (NIH:Swiss mice) was “weak” and the EC50 [1] was 3.22 nM.
With GLP-1 [7-36]NH2 the “plasma circulating metabolites (HPLC)” value [2] was “subpeptide degradants”.
With “amylin: peptide hormone studied for comparison of plasma degradation (KCNTATCATQRLANFLVHSSNNFGAILSSTNVGSNTY; Islet amyloid polypeptide; UniProt P10997 34-70, looked up)” the “plasma circulating metabolites (HPLC)” value [2] was “subpeptide degradants”.
